Legend:
BaF3 wild type cells = assay: Alamar Blue proliferation assay, IL-TIF activity; format: cell-based, murine
MES 13 cells = assay: IL-TIF activation of SRE/STAT luciferase reporter mini-gene in MES 13 cells; format: cell-based, murine; conditions: 4 h
Experimental: MES 13 cells (ATCC No. CRL-1927) were plated at 10,000 cells/well in 96-well tissue culture clusters (Costar) in DMEM growth medium (Life Technologies) supplemented with pyruvate and 10% serum (HyClone). Next day, the medium was switched to serum free DMEM medium by substituting 0.1% BSA (Fraction V; Sigma) for serum. This medium also contained the adenoviral construct KZ136 (below) that encodes a luciferase reporter mini-gene driven by SRE and STAT elements, at a 1000:1 multiplicity of infection (m.o.i.), i.e. 1000 adenoviral particles per cell. After allowing 24 h for the incorporation of the adenoviral construct in the cells, the media were changed and replaced with serum-free media. Human recombinant IL-TIF with or without a recombinant Zcytor16-Fc4 fusion was added at the indicated final concentration in the well (as described in Table 11, below). Dilutions of both the IL-TIF and Zcytor16-Fc4 were performed in serum-free medium. 0.1% BSA was added for a basal assay control. 4 h later, cells were lysed and luciferase activity, denoting activation of the reporter gene, was determined in the lysate using an Luciferase Assay System assay kit (Promega) and a Labsystems Luminoskan luminometer (Labsystems, Helsinki, Finland). Activity was expressed as luciferase units (LU) in the lysate.
The construction of the adenoviral KZ136 vector was as follows. The original KZ136 vector is disclosed in Poulsen, L K et al. J. Biol. Chem. 273:6228-6232, 1998. The CMV promoter/enhancer and SV40 pA sequences were removed from pACCMV.pLpA (T. C. Becker et al., […] 43:161-189, 1994.) and replaced with a linker containing Asp718/KpnI and HindIII sites (oligos ZC13252 (SEQ ID NO:26) and ZC13453 (SEQ ID NO:27)). The STAT/SRE driven luciferase reporter cassette was exised from vector KZ136 (Poulsen, L K et al., supra.).) as a Asp718/KpnI-HindIII fragment and inserted into the adapted pAC vector. Recombinant KZ136 Adenovirus was produced by transfection with JM17 Adenovirus into 293 cells as described in T. C. Becker et al. supra.). Plaque purified virus was amplified and used to infect cultured cells at 5-50 pfu/cell 12-48 hours before assay. Luciferase reporter assays were performed as described in 96 well microplates as per Poulsen, L K et al., supra.).

K-562 cells = assay: K-562 cytotoxicity assay (MTT); format: cell-based, human; conditions: 72 h
Experimental: The K-562 cell line (CRL-243, ATCC) has attained widespread use as a highly sensitive in vitro target for cytotoxicity assays. K-562 blasts are multipotential, hematopoietic malignant cells that spontaneously differentiate into recognizable progenitors of the erythrocytic, granulocytic and monocytic series (Lozzio, B B et al., Proc. Soc. Exp. Biol. Med. 166: 546-550, 1981).
K562 cells were plated at 5,000 cells/well in 96-well tissue culture clusters (Costar) in DMEM phenol-free growth medium (Life Technologies) supplemented with pyruvate and 10% serum (HyClone). Next day, human recombinant IL-TIF (Example 19), BSA control or retinoic acid (known to be cytotoxic to K562 cells) were added. Seventy-two hours later, the vital stain MTT (Sigma, St Louis, Mo.), a widely used indicator of mitochondrial activity and cell growth, was added to the cells at a final concentration of 0.5 mg/ml. […] is converted to a purple formazan derivative by mitochondrial dehydrogenases. Four hours later, converted MMP was solubilized by adding an equal volume of acidic, isopropanol (0.04N HCl in absolute isopropanol) to the wells. Absorbance was measured at 570 nm, with background subtraction at 650 nm. In this experimental setting, absorbance reflects cell viability. Results shown in Table 12 are expressed as % cytotoxicity.

[1] = system: BaF3/CRF2-4/zcytor11 cells; assay: Alamar Blue proliferation assay, IL-TIF activity; format: cell-based, murine; conditions: 3 days + Alamar Blue
Experimental: BaF3/CRF2-4/zcytor11 cells were spun down and washed in the complete media, described in Example 7A above, but without mIL-3 (hereinafter referred to as “mIL-3 free media”). The cells were spun and washed 3 times to ensure the removal of the mIL-3. Cells were then counted in a hemacytometer. Cells were plated in a 96-well format at 5000 cells per well in a volume of 100 μl per well using the mIL-3 free media.
Proliferation of the BaF3/CRF2-4/zcytor11 cells was assessed using IL-TIF-CEE protein diluted with mIL-3 free media to 50, 10, 2, 1, 0.5, 0.25, 0.13, 0.06 ng/ml concentrations. 100 μl of the diluted protein was added to the BaF3/CRF2-4/zcytor11 cells. The total assay volume is 200 μl. The assay plates were incubated at 37° C., 5% CO2 for 3 days at which time Alamar Blue (Accumed, Chicago, Ill.) was added at 20 μl/well. Plates were again incubated at 37° C., 5% CO2 for 24 hours. Alamar Blue gives a fluourometric readout based on number of live cells, and is thus a direct measurement of cell proliferation in comparison to a negative control. […] Plates were read on the Fmax™ plate reader (Molecular Devices Sunnyvale, Calif.) using the SoftMax™ Pro program, at wavelengths 544 (Excitation) and 590 (Emmission). […] The response, as measured, was approximately 15-fold over background at the high end of 50 ng/ml down to a 2-fold induction at the low end of 0.06 ng/ml.

BaF3/CRF2-4 cells = assay: Alamar Blue proliferation assay, IL-TIF activity; format: cell-based, murine
[2] = system: BaF3/mZcytor16-MPL receptor cell line; assay: Proliferation assay with BaF3/mZcytor16-MPL chimera cells; format: cell-based, murine; conditions: in the presence of the correct receptor complex
Experimental: Using standard methods described herein, cells expressing a BaF3/mZcytor16-MPL chimera (wherein the extracellular domain of the mouse Zcytor16 (e.g., amino acids 24 to 230 of SEQ ID NO:38 or SEQ ID NO:48) is fused in frame to the intracellular signaling domain of the mpl receptor) are tested for proliferative response in the presence of IL-TIF. Such cells serve as a bioassay cell line to measure ligand binding of monomeric or homodimeric mouse Zcytor16 receptors. In addition, BaF3/mZcytor16-MPL chimera cells transfected with an additional heterodimeric cytokine receptor subunit can be assessed for proliferative response in the presence of IL-TIF. […] Transfection of the BaF3/MPL-mZcytor16 cell line with and additional MPL-class II cytokine receptor fusion that signals in the presence of the IL-TIF ligand, such as CRF2-4, determines which heterodimeric cytokine receptor subunits are required for mouse Zcytor16 receptor signaling. Use of MPL-receptor fusions for this purpose alleviates the requirement for the presence of an intracellular signaling domain for the mouse Zcytor16 receptor.
Each independent receptor complex cell line is then assayed in the presence of IL-TIF and proliferation measured using routine methods (e.g., Alamar Blue assay). […]

B1: IL-TIF: human IL-TIF polypeptide (SEQ ID NO:15) containing C-terminal GluGlu (EE) tag, purified from BHK cells (protein, listed as Homo sapiens)
chain: MAALQKSVSSFLMGTLATSCLLLLALLVQGGAAAPISSHCRLDKSNFQQPYITNRTFMLAKEASLADNNTDVRLIGEKLFHGVSMSERCYLMKQVLNFTLEEVLFPQSDRFQPYMQEVVPFLARLSNRLSTCHIEGDDLHIQRNVQKLKDTVKKLGESGEIKAIGELDLLFMSLRNACI
modifications: C-terminal EE tag
BaF3 wild type cells
  proliferation in response to IL-TIF-CEE: did not proliferate
MES 13 cells; IL-TIF 0.03 ng/ml
  LU w/o zcytoR16: 105 ± 3 LU
MES 13 cells; IL-TIF 0.3 ng/ml
  LU w/o zcytoR16: 108 ± 4 LU
MES 13 cells; IL-TIF 3 ng/ml
  LU w/o zcytoR16: 134 ± 8 LU
MES 13 cells; IL-TIF 30 ng/ml
  LU w/o zcytoR16: 188 ± 16 LU
MES 13 cells; IL-TIF 300 ng/ml
  LU w/o zcytoR16: 258 ± 21 LU
K-562 cells; 100 ng/ml
  % Cytotoxicity: 16.2%
K-562 cells; 300 ng/ml
  % Cytotoxicity: 32%
[1]; IL-TIF-CEE 0.06 ng/ml
  proliferative response (induction): ~2 fold
[1]; IL-TIF-CEE 50 ng/ml
  proliferative response over background: approximately 15 fold
BaF3/CRF2-4 cells
  proliferation in response to IL-TIF-CEE: did not proliferate
[2]
  increase of proliferation over background: ≥ 5 fold
